The values that follow come from patent publication US20240109967A1 (University of Pennsylvania, published 2024).

Assay [1] has as its target T1, recombinant human CD80-Fc chimera (carrier free, BioLegend) (human, UniProt P33681 35-242).
T1 construct: Commercial protein; also called huCD80-Fc; huCD80; not shown: Fc of the commercial chimera, not described
T1 sequence (looked up): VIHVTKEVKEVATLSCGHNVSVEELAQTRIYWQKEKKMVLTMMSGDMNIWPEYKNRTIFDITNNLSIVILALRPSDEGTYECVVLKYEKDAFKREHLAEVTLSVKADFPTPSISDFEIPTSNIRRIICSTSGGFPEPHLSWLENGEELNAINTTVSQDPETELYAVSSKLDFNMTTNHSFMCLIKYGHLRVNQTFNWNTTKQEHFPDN
Put plainly: ELISA: biotinylated cCTLA-4 ECD on plate-bound human CD80-Fc, streptavidin-AP, no antibody. A general note: ELISA stands for enzyme-linked immunosorbent assay.

Assay [2] has as its target T2, recombinant human CD86-Fc chimera (carrier free, BioLegend) (human, UniProt P42081 24-247).
T2 construct: Commercial protein; also called huCD86-Fc; huCD86; not shown: Fc of the commercial chimera, not described
T2 sequence (looked up): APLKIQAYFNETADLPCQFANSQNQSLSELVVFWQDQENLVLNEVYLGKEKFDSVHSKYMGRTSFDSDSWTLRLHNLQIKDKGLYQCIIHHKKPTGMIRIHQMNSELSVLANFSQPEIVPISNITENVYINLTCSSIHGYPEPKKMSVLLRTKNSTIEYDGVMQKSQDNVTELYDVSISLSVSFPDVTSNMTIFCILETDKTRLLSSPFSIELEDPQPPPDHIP
Put plainly: ELISA: biotinylated cCTLA-4 ECD on plate-bound human CD86-Fc, streptavidin-AP, no antibody.

Assay [3] has as its target T3, human complement C1q (in normal human complement serum) (human, UniProt P02745 23-245; P02746 28-253; P02747 29-245).
T3 construct: also called human serum complement
Put plainly: complement fixation ELISA: antibody on captured cCTLA-4, human serum complement, anti-human C1q HRP.

T3 sequence (P02745 23-245 limits assumed, chain 1 of 3): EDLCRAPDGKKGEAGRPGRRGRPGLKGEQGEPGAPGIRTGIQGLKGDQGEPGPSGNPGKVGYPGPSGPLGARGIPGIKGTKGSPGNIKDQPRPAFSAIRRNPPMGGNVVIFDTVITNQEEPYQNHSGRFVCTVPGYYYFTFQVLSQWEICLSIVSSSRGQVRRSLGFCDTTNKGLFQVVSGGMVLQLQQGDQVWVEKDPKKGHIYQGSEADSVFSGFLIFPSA
T3 sequence (P02746 28-253 limits assumed, chain 2 of 3): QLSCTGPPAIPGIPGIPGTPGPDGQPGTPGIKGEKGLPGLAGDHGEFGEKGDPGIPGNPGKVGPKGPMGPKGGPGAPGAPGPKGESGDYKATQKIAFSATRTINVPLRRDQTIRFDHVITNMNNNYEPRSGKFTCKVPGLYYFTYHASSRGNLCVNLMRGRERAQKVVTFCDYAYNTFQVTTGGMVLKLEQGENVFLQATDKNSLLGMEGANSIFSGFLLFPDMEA
T3 sequence (P02747 29-245 limits assumed, chain 3 of 3): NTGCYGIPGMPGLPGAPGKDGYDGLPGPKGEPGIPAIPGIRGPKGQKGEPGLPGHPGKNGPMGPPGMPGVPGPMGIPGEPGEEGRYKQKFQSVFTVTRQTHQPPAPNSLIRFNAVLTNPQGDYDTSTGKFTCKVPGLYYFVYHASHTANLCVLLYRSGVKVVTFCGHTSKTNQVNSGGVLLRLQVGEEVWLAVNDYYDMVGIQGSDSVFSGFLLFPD

B1: recombinant canine CTLA-4 extracellular domain protein (receptor, not shown: small tags and cut ends)
chain: KGMHVAQPAVVLASSRGVASFVCEYGSSGNAAEVRVTVLRQAGSQMTEVCAATYTVEDELAFLDDSTCTGTSSGNKVNLTIQGLRAMDTGLYICKVELMYPPPYYVGMGNGTQIYVIDPEPCPDSD
modifications: biotin on the Avi tag (BirA ligase) in the ELISA, panning and interaction assays
notes: Cloned into pFUSE containing an HA tag, made in 293T cells; The SPR analyte is called soluble cCTLA-4 ECD, and biotinylation is not mentioned there; also called cCTLA-4; cCTLA-4 ECD
For B1, the binding result in assay [1] and in assay [2] was “binds” each time.

B2: A1mut2 full-length canine IgG1 (IgGA) mAb (antibody)
heavy: EVQLVETGGDLVKPGGSLRLSCVASGFSFSSYAMNWVRQAPEKGLQLVGGINSGGSSTYYTDAVKGRFTISRDNAKNTVYLQMNSLRAEDTAVYYCAISNWAYWGQGTLVTVSSASTTAPSVFPLAPSCGSTSGSTVALACLVSGYFPEPVTVSWNSGSLTSGVHTFPSVLQSSGLYSLSSMVTVPSSRWPSETFTCNVVHPASNTKVDKPVFNECRCTDTPPCPVPEPLGGPSVLIFPPKPKDILRITRTPEVTCVVLDLGREDPEVQISWFVDGKEVHTAKTQSREQQFNGTYRVVSVLPIEHQDWLTGKEFKCRVNHIDLPSPIERTISKARGRAHKPSVYVLPPSPKELSSSDTVSVTCLIKDFYPPDIDVEWQSNGQQEPERKHRMTPPQLDEDGSYFLYSKLSVDKSRWQQGDPFTCAVMHETLQNHYTDLSLSHSPGKGGGSGGGSYPYDVPDYA
light: QAVLNQPASVSGSLGQRVTISCTGSSSDIGKSYVAWYQQLPGTGPRTLINVDGNRASGVPDRFSVSRSGNTATLTISGLQAEDEADYHCSSWDWSLHTYVFGSGTQLTILGQPKASPSVTLFPPSSEELGANKATLVCLISDFYPSGVTVAWKADGSPITQGVETTKPSKQSNNKYAASSYLSLTPDKWKSHSSFSCLVTHEGSTVEKKVAPAECS
notes: The HA tag is said to be appended to the carboxyl termini of the full-length IgGs and is placed here on the heavy chain; also called A1mut2 mAb; A1mut2 antibody
On to B2, for which the binding result in assay [3] was “no binding (tested: 10 ug/ml antibody)”.

B3: A1mut2 full-length canine IgG4 (IgGD) mAb, HA-tagged (antibody)
heavy: EVQLVETGGDLVKPGGSLRLSCVASGFSFSSYAMNWVRQAPEKGLQLVGGINSGGSSTYYTDAVKGRFTISRDNAKNTVYLQMNSLRAEDTAVYYCAISNWAYWGQGTLVTVSSASTTAPSVFPLAPSCGSTSGSTVALACLVSGYFPEPVTVSWNSGSLTSGVHTFPSVLQSSGLYSLSSMVTVPSSRWPSETFTCNVVHPASNTKVDKPVPKESTCKCISPCPVPESLGGPSVFIFPPKPKDILRITRTPEITCVVLDLGREDPEVQISWFVDGKEVHTAKTQPREQQFNSTYRVVSVLPIEHQDWLTGKEFKCRVNHIGLPSPIERTISKARGQAHQPSVYVLPPSPKELSSSDTVTLTCLIKDFFPPEIDVEWQSNGQPEPESKYHTTAPQLDEDGSYFLYSKLSVDKSRWQQGDPFTCAVMHEALQNHYTDLSLSHSPGKGGGSGGGSYPYDVPDYA
light: QAVLNQPASVSGSLGQRVTISCTGSSSDIGKSYVAWYQQLPGTGPRTLINVDGNRASGVPDRFSVSRSGNTATLTISGLQAEDEADYHCSSWDWSLHTYVFGSGTQLTILGQPKASPSVTLFPPSSEELGANKATLVCLISDFYPSGVTVAWKADGSPITQGVETTKPSKQSNNKYAASSYLSLTPDKWKSHSSFSCLVTHEGSTVEKKVAPAECS
notes: also called A1mut2 IgGD
As to B3, the binding result in assay [3] is “no binding (tested: 10 ug/ml antibody)”.
